“And” between values parts separate entries of the source, which are not always exact repeats. Equal values may be shown once.
B1: Tryptophan synthase alpha chain, P0A877 (parent)
chain: MERYESLFAQLKERKEGAFVPFVTLGDPGIEQSLKIIDTLIEAGADALELGIPFSDPLADGPTIQNATLRAFAAGVTPAQCFEMLALIRQKHPTIPIGLLMYANLVFNKGIDEFYAQCEKVGVDSVLVADVPVEESAPFRQAALRHNVAPIFICPPNADDDLLRQIASYGRGYTYLLSRAGVTGAENRAALPLNHLVAKLKEYNAAPPLQGFGISAPDQVKAAIDAGAAGAISGSAIVKIIEQHINEPEKMLAALKVFVQPMKAATRS

Variants of: B1
Settings: Escherichia coli (strain K12); pH 7.8; 25 °C; Urea; CD; potassium phosphate 10 mM; transition: 3; structure 1WQ5; whole UniProt chain shown

What does the source list for P28G?
denaturant m value: 2.15 kcal/mol/M and 1.18 kcal/mol/M; denaturant midpoint (higher = more stable): 2.08 M and 4.1 M; unfolding free energy: 18.7 kJ/mol and 20.3 kJ/mol

For P28A, which denaturant m value is on record?
The denaturant m value was 1.48 kcal/mol/M and 1.04 kcal/mol/M.

And the “denaturant midpoint (higher = more stable)” value?
Its value is 1.36 M and 3.66 M.

And the unfolding free energy?
Its unfolding free energy is 8.41 kJ/mol and 15.9 kJ/mol.
